Reference: article PMC4213662

Experiments:
[1] = biological target: ribosome-nascent chain complex actively translating a 3'-truncated lepB mRNA encoding the first 155 amino acids (Cy3B-labeled 50S subunit) (E. coli (strain MC4100) | E. coli) (UniProt P00803); assay: FRET or BRET; as a1 but 250 nM EF-G (slower elongation)
[2] = biological target: ribosome-nascent chain complex actively translating a 3'-truncated lepB mRNA encoding the first 155 amino acids (Cy3B-labeled 50S subunit) (E. coli (strain MC4100) | E. coli) (UniProt P00803); assay: FRET or BRET; single-molecule FRET in zero-mode waveguides; 100 nM Cy5-SRP in solution, RNCs translating lepB mRNA (155 amino acids) held by the biotinylated mRNA; 750 nM EF-G; Tris-based polymix buffer with 5 mg/ml BSA and 10 µM Blocking oligo; rates estimated from the time at which curves reach 50%

half-time of arrival after the initial binding event (2nd–10th arrivals) [1]: 12 s | half-time of first arrival [1]: 350 s | half-time of arrival after the initial binding event (2nd–10th arrivals) [2]: 5 s | half-time of first arrival [2]: 280 s | kon [2]: 1.8e+06 M⁻¹ s⁻¹
Substance: Cy5-labeled E. coli signal recognition particle (Ffh(E153C)-Cy5 reconstituted with 4.5S RNA) (from UniProt P0AGD7 1-453) (complex)
